Measurements published in article PMC9482650, “Quantitative fragmentomics allow affinity mapping of interactomes” (Nature Communications, 2022).

T1: LIN7B, Q9HAP6
T1 sequence (Q9HAP6 88-185, limits assumed, looked up): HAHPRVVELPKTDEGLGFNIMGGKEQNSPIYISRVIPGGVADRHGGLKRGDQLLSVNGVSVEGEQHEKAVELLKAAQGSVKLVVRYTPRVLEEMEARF

T2: RAPGEF6, Q8TEU7
T2 sequence (Q8TEU7 525-625, limits assumed, looked up): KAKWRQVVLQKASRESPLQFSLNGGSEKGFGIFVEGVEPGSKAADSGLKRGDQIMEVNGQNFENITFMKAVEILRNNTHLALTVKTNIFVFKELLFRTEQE

T3: DLG3_1, Q92796
T3 sequence (Q92796 125-227, limits assumed, looked up): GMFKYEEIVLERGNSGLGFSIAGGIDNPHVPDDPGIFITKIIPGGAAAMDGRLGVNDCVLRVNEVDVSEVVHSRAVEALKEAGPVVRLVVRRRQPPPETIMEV

T4: SIPA1L2, Q9P2F8
T4 sequence (Q9P2F8 945-1036, limits assumed, looked up): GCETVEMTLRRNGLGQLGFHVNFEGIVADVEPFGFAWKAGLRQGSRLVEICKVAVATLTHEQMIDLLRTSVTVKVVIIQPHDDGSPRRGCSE

T5: MPDZ_5, O75970
T5 sequence (O75970 695-796, limits assumed, looked up): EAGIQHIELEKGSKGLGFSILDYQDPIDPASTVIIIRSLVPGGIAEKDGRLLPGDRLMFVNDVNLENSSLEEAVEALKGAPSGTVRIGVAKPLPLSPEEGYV

T6: MPDZ_10, O75970
T6 sequence (O75970 1624-1722, limits assumed, looked up): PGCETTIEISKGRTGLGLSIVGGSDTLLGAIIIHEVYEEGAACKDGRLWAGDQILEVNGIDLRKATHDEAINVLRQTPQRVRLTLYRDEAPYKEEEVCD

T7: PDZRN3_1, Q9UPQ7
T7 sequence (Q9UPQ7 244-349, limits assumed, looked up): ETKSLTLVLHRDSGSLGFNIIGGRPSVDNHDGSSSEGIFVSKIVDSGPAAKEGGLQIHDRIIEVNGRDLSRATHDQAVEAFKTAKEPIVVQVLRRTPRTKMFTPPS

T8: DLG3_2, Q92796
T8 sequence (Q92796 221-321, limits assumed, looked up): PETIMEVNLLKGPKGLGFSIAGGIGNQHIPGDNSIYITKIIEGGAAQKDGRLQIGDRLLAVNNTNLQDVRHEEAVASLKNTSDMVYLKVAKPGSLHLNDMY

T9: NHERF3_3, Q5T2W1
T9 sequence (Q5T2W1 238-333, limits assumed, looked up): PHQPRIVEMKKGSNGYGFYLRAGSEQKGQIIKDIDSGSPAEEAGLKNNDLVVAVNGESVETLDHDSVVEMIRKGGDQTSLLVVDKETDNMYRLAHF

T10: MPDZ_12, O75970
T10 sequence (O75970 1857-1958, limits assumed, looked up): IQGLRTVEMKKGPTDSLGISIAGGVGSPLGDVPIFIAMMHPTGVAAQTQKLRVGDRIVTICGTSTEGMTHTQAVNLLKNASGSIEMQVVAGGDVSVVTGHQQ

T11: SNTG2, Q9NY99
T11 sequence (Q9NY99 68-166, limits assumed, looked up): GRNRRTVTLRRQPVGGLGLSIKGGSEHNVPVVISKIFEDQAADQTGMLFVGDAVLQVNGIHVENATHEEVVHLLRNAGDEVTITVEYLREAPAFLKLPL

T12: DFNB31_1, Q9P202
T12 sequence (Q9P202 135-233, limits assumed, looked up): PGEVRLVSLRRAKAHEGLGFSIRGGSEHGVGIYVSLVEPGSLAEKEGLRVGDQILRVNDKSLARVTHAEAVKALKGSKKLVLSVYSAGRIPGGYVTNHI


Key:
Experiment in all cases: holdup assay
Set-up in all cases: key: below the threshold = too weak to quantify, mostly under pKd 3.1 to 4
Details in all cases: plain residues with an end cap or a label only (N-terminal biotin on a linker: ado-ado)
[1] = biological target: T1, LIN7B, Q9HAP6
[2] = biological target: NHERF4_4, Q86UT5
NHERF4_4, Q86UT5, sequence (Q86UT5 464-550): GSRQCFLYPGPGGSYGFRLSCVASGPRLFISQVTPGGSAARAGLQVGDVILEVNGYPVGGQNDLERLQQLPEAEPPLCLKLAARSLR

[3] = biological target: GRID2IP_1, A4D2P6
GRID2IP_1, A4D2P6, sequence (A4D2P6 1-87): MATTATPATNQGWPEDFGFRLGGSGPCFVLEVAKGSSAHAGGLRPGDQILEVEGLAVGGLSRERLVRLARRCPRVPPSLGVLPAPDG

[4] = biological target: DLG1_3, Q12959
DLG1_3, Q12959, sequence (Q12959 457-571): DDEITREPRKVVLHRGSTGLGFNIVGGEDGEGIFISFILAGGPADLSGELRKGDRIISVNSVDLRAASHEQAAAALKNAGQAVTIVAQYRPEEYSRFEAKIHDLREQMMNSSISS

[5] = biological target: T2, RAPGEF6, Q8TEU7
[6] = biological target: TJP1_3, Q07157
TJP1_3, Q07157, sequence (Q07157 416-512): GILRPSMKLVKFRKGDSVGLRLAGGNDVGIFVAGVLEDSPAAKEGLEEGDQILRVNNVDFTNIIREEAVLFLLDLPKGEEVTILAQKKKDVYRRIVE

[7] = biological target: T3, DLG3_1, Q92796
[8] = biological target: AHNAK1, Q09666
AHNAK1, Q09666, sequence (Q09666 4-100): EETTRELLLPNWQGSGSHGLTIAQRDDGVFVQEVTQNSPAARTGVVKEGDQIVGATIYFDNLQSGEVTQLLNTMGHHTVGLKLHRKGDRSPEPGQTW

[9] = biological target: SNX27, Q96L92
[10] = biological target: Inadl_3, Q8NI35
Inadl_3, Q8NI35, sequence (Q8NI35 359-469): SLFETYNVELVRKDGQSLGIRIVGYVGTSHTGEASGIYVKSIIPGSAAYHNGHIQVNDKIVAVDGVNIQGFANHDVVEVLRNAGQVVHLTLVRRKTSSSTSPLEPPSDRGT

[11] = biological target: T4, SIPA1L2, Q9P2F8
[12] = biological target: LDB3, O75112
LDB3, O75112, sequence (O75112 1-94): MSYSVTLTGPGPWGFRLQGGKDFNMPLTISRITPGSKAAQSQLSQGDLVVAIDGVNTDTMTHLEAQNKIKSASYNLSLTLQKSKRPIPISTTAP

[13] = biological target: SCRIB_1, Q14160
SCRIB_1, Q14160, sequence (Q14160 718-814): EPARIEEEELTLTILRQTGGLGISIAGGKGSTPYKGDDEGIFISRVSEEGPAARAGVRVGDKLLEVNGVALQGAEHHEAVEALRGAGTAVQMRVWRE

[14] = biological target: T5, MPDZ_5, O75970
[15] = biological target: Inadl_5, Q8NI35
Inadl_5, Q8NI35, sequence (Q8NI35 673-780): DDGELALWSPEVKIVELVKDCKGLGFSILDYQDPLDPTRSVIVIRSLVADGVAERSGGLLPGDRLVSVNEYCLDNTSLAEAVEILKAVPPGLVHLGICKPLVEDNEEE

[16] = biological target: T6, MPDZ_10, O75970
[17] = biological target: T7, PDZRN3_1, Q9UPQ7
[18] = biological target: T8, DLG3_2, Q92796
[19] = biological target: T9, NHERF3_3, Q5T2W1
[20] = biological target: T10, MPDZ_12, O75970
[21] = biological target: T11, SNTG2, Q9NY99
[22] = biological target: FRMPD2_3, Q68DX3
FRMPD2_3, Q68DX3, sequence (Q68DX3 1073-1166): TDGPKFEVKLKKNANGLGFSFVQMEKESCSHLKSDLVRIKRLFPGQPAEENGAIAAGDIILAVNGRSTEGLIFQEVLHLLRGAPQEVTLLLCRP

[23] = biological target: NHERF4_2, Q86UT5
NHERF4_2, Q86UT5, sequence (Q86UT5 220-308): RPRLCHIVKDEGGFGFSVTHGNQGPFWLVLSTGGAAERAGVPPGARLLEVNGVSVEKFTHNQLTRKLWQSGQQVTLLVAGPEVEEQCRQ

[24] = biological target: T12, DFNB31_1, Q9P202

| Binder | pKd [1] | pKd [2] | pKd [3] | pKd [4] | pKd [5] | pKd [6] | pKd [7] | pKd [8] | pKd [9] | pKd [10] | pKd [11] | pKd [12] | pKd [13] | pKd [14] | pKd [15] | pKd [16] | pKd [17] | pKd [18] | pKd [19] | pKd [20] | other results |
| --- | --- | --- | --- | --- | --- | --- | --- | --- | --- | --- | --- | --- | --- | --- | --- | --- | --- | --- | --- | --- | --- |
| MQHQRTHTRV [ZSCAN30, Q86W11] | below the threshold | below the threshold | 3.57 | 3.81 | below the threshold | below the threshold | 4.03 | below the threshold | 4.38 | below the threshold | below the threshold | below the threshold | 3.68 | below the threshold | below the threshold | 3.7 | below the threshold | 4.88 | 3.64 | below the threshold | pKd [21]: 3.86; pKd [22]: 3.5; pKd [23]: below the threshold; pKd [24]: 3.81 |
| NIAESLESLV [PTPRZ1, P23471] | below the threshold | below the threshold | below the threshold | below the threshold | below the threshold | below the threshold | 4.29 | below the threshold | 5.09 | 4.13 | below the threshold | below the threshold | 3.87 | below the threshold | below the threshold | below the threshold | 4.22 | 4.81 | below the threshold | below the threshold | pKd [21]: 4.34; pKd [22]: below the threshold; pKd [23]: below the threshold; pKd [24]: 3.8 |
| VKRNSKETVV [MARCHF3, Q86UD3] | 3.86 | below the threshold | below the threshold | 4.32 | below the threshold | below the threshold | 4.77 | below the threshold | 5.28 | 3.49 | below the threshold | below the threshold | 4.55 | below the threshold | 3.67 | below the threshold | 3.69 | 5.52 | below the threshold | below the threshold | pKd [21]: 4.54; pKd [22]: below the threshold; pKd [23]: below the threshold; pKd [24]: 3.64 |
